Test results from US20230331848A1 (BIOSION, published 2023).

Columns and labels:
[1] = target: T1, cynomolgus PD-1-his protein (Cat#:PD1-05223, Acro biosystems Inc.) (cynomolgus, UniProt B0LAJ3 25-170); test: indirect ELISA on coated cynomolgus PD-1-his
T1 construct: Bought protein used in Biacore and indirect ELISA; also called monkey PD-1; Cyno PD-1

[2] = target: T2, in house made human PD-1-Fc protein (human, biotin-labeled (sites not given)); test: competitive ELISA: biotin human PD-1-Fc + antibody on coated human PD-L1-Fc (competitor)
T2 construct: also called biotin-labeled human PD-1-Fc
Experimental: (§1) Briefly, 100 μl human PD-L1-Fc protein (prepared in-house with SEQ ID NO: 28) at 2 μg/mL in carbonate/bicarbonate buffer (pH 9.6) was coated on 96-well micro plates overnight at 4° C., Plates were washed with wash buffer (PBS+0.05% w/v Tween-20, PBST), and blocked with 5% w/v non-fatty milk in PBST for 2 hours at 37° C. […] After incubation at 37° C. for 40 minutes, plates were washed using wash buffer. […] Plates were washed again using wash buffer. Finally, TMB was added and the reaction was stopped using 1M H₂SO₄. The absorbance was read on a microplate reader using dual wavelength mode with 450 nm for TMB and 630 nm as the reference wavelength, then the OD (450-630) values were plotted against antibody concentrations. Data was analyzed using Graphpad Prism software and IC₅₀ values were reported.

[3] = target: T3, human PD-1-his protein prepared in-house (human, UniProt Q15116 25-167, biotin-labeled (sites not given)); test: capture ELISA, antibody captured, biotin human PD-1-his detected
T3 construct: also called biotin labeled human PD-1-his
Experimental: Briefly, 96-well micro plates were coated with 100 μl 2 μg/ml AffiniPure Goat Anti-Mouse IgG F(ab′)₂ fragment specific (Cat#:115-005-072, Jackson lmmunoResearch) or Goat-anti-human IgG (Cat#:109-005-097, Jackson ImmunoResearch, for the positive control and negative control) in PBS overnight at 4° C. Plates were washed once with wash buffer (PBST, PBS+0.05% Tween-20) and then blocked with 200 μl/well blocking buffer (5% w/v non-fatty milk in PBST) for 2 hours at 37° C. […] After a final wash, plates were incubated with 100 μl/well TMB (Cat#:TMB-S-002, Innoreagents) at room temperature.
For the capture ELISA, 96-well plates were coated with 100 μl 2 μg/ml AffiniPure Goat Anti-Human IgG, Fcγ fragment specific (Cat#:109-005-098, Jackson Immunoresearch) instead of AffiniPure goat-anti-mouse IgG F(ab′)₂ fragment specific.

[4] = target: T2, in house made human PD-1-Fc protein; test: blocking FACS: biotin human PD-1-Fc + antibody on GS-C2/PD-L1 cells (competitor: cell-surface human PD-L1)
[5] = target: T3, human PD-1-his protein prepared in-house; test: competitive ELISA: biotin human PD-1-his + antibody on coated Pembrolizumab (competitor)
Experimental: ELISA plates were washed once with wash buffer (PBST, PBS+0.05% Tween-20) and then blocked with 200 μl/well blocking buffer (5% w/v non-fatty milk in PBST) for 2 hours at 37° C. […] After incubation at 37° C. for 40 minutes, plates were washed using wash buffer, added and incubated with 100 μl/well Peroxidase Streptavidin for 40 minutes at 37° C. Plates were washed again using wash buffer. Finally, TMB was added and the reaction was stopped using 1M H₂SO₄. The absorbance was read on a microplate reader using dual wavelength mode with 450 nm for TMB and 630 nm as the reference wavelength, and the OD (450-630) values were plotted against antibody concentrations. Data was analyzed using Graphpad Prism software and IC₅₀ values were reported.

[6] = target: T2, in house made human PD-1-Fc protein; test: competitive ELISA: antibody pre-mixed with biotin-labeled human PD-1-Fc, added to coated human PD-L1-Fc (blocked ligand); unit from the axis 'Con of mAb, nM.'
Experimental: The activities of the anti-PD1 antibodies of the disclosure to block PD-L1-PD1 binding were measured in a competitive ELISA.
as §1

Row | EC50 [1] | IC50 [2] | EC50 [3] | IC50 [4] | IC50 [5] | IC50 [6] | Binder
1 | 0.07 nM | 0.37 nM | 0.14 nM | 0.42 nM | 0.48 nM |  | mouse anti-PD-1 monoclonal antibody E1A9C8A7 (antibody, V domains shown, Hybridoma-derived mouse mAb purified on Protein A; also called Mouse E1A9C8A7) VH: QVQLQQSGAEVVRPGVSVRISCKGSGYTFSDYVMHWMKQSHGESLEWIGVISTYHIPAVYNQKFKGKATMTVDKSSSTVYLELARLTSEDSAIYYCAREVYGDSYYFDVWGAGTTVTVSS VL: DVLMTQIPLSLPVSLGDQVSISCRSSQSIVHSNGNTYLEWYLQKPGQSPKLLIYKVSNRFSGVPDRFSGSGSGTDFTLKISRVEAEDLGVYYCFQGSHVPYTFGGGTKLEIK
2 |  |  |  |  |  | 0.434 nM | mouse anti-PD-1 monoclonal antibody E1G5D1H1 (antibody, V domains shown, Hybridoma-derived mouse mAb; also called EIG5D1H1; E1G5DIH1) VH: EVQLVESGGGLVKPGGSLKLSCAASGFTFSDFYMYWVRQTPEKRLEWVATISNSGTQTYYLDSVKGRFTISRDNAKNNLYLQMSSLKSEDTAMYYCARDYYRYDSWYFDVWGAGTTVTVSS VL: DIVLTQSPASLAVSQGQRATISCRASESVDFYGTSLMQWFQLKPGQPPKLLIYAASNVESGVPARFSGSGSGTNFSLNIHPVEEDDIAMYFCQQSRKVPWTFGGGTNLEIK
